PMC8459632

Biological target: SpyCatcher‐mi3 fusion protein
Assay: SDS-PAGE of the covalent conjugate

## 2019‐nCoV RBD‐SpyTag (from UniProt P0DTC2 319-541) (domain or fragment)
  stoichiometry N (RBD monomers per particle): 30
